# Test results reported in a protein production outcome set (Wang et al. 2014).
# Assay: label from the status in PepcDB records
# 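Also: failed if final PepcDB status was selected cloned or expressed and not failed if soluble or beyond.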
row,Sequence,protein production
1,MYKTQKNHIRCDKQTYRLLRQLCHFSKNLYNYALYHIRQHYFKTQEYLRYESVYHLVKESEDYRLLPSQVAQQTLISVIEAFKSFLGLLRAEKEGKVEERVSMPKYLPKDGMYQIVFPKDQFKTEGKKVRLSLGRGFAKEFGVKYLYFDLPATVLGKEIREVRIIPRFNGRWFEIEYVYEDKQQLGIFDLSRYLGVDLGLDNFAAVVDTIGTAFLIEGRFLKSVNRWYNKERARLQSIYSRQGIKCGRKLALVSRKRQHIIDNFLNQAVSLIIKHCLNNQISAVVVGEMKDIKQGIELGVVNNQNFVGIPYDKFKRKLKSKCMYYGIRYVEVDESYTSQRCSRCGHVSKSSRRYRGLYVCKKCGYVVNADINGAINIVAKVAGESVVKQITSSGCVNHPVRIRVA,failed
2,MYKYITILGAAGQIAQKLTATLLTYTDMHITLYGRQLKTRIPPEIIDHERVTVIEGSFQNPGKLEQAVTNAEVVFVGAMESGSDMASIVKALSRKNIRRVIGVSMAGLSGEFPVALEKWTFDNLPISYVQGERQARNVLRESNLNYTILRLTWLYNDPEKTDYELIPEGAQFNDAQVSREAVVKAIFDILHAADETPFHRTSIGVGEPGTHYDKPSFH,not failed
3,MYLCGSNQSRKETLENKRYNNVEEWANTLSHGAGILLGVIAGYFLLAKAAAGAEPKWAVACVTVYLFGMLSSYVSSTWYHGSRPGKLKELLRKFDHGAIYLHIAGTYTPFTLLVMRHAGGWGWGIFSFVWLSAIVGFILSFKKLKEHSNLETACYIAMGACILVAMKPLMDHLAEMGAGPAFWWLIGGGVSYIIGAVFYSLRKPYMHATFHLFCLGGSIGHIIAIWLIL,failed
4,MYLPLLMALVVALSSCSNKMGALSSDYFTTTPQVLEAVGGKVPVTINGKFPEKYFKKNAVVEVTPVLKWEGGQVKGQPAVFQGEKVEGNDQTISYKMGGNYTMKTTFDYVPEMAKSELYLEFNAKVGKKTIAIPAVKIADGVISTSELINNTLSSANPALGDDAFQRIIKEAHNANIMFLIQQANIRSSELKTAKEFNKEVANVNDAENKKISNIEISAYASPDGGVKLNTGLAENREGNTTKLINKDLKKAKIEVPVDAKYTAQDWEGFQELVSKSNIQDKELILRVLSMYQDPEQRETEIKNISSVYKTLADEILPQLRRSRLTLNYEIIGKSDEEIANLAATDPKQLNVEEILYAATLTNDPAKKADIYTKASQQFPNDYRAFNNLGKLAYQAGDLDKAQSYVKKAESIKSAPEVNMNLGLIALAKGDKAAAESYLGKAAGAKELNETLGNLYVAQGQYERAVNAFGDTKTNSAALAQILAKDYNKAKNTLAGIATPDAYTDYLMAVLGARTNNTSMLTSSLKSAVAKNPALAKKAATDLEFAKYYTNADFMSIVK,failed
5,MYPKKQACCPAMVMPYTLHAERTRVEVIPERGGLISRWQWQGHELLYLDRERFANPQFSVRGGIPLLFPICGNLPEDAFHDNGQTYHLKQHGFARDLPWQVLDQRQHVLKLGLQDTPATRQVYPFAFHLTLTYTLAADALAIALEVANPGDIPLPFSFGLHPYFAVADKHQLQFDLPIHAMVDQKTQQPLTFSGTFDWSAAELDWACRPLTGQVARVFDLQQQYCLTLRYDTAFTTLVFWTVQGKPYYCLEPWTAPRNALNTGVDLLHVPPQKHLTLGVEIAVAPL,failed
6,MYQAVVFFDLDGTLMQDDKTVAASSVRAIQQLRANHVLPVIATGRNVFEVQDVMTTTGIDSIVSANGSYVAYQGQFLSAHELDKELLTDITHFANRQQNALAYYNNAGFALSHRDALTTSNYRALRQTARVAPHFYEHQHINFLLTFDPLNAAQYRQRYRGRLHFVRNNPRALDTMQWGVSKAVGIQDILTKAHLTKVPTYAFGDQLNDIEMFRMIQTPIAMGNGHPQVKQLARYVTADNMHGGIAQGLQHFDLI,failed
7,MYQVAICDPIHAKGIQILEAQKDIVLHDYSKCPKKELLEKLTPMDALITRSMTPITSDFLKPLTHLKSIVRAGVGVDNIDLESCSQKGIVVMNIPTANTIAAVELTMAHLINAVRSFPCANDQIKHQRLWKREDWYGTELKNKKLGIIGFGNIGSRVGIRAKAFEMEVLAYDPYIPSSKATDLGVIYTKNFEDILQCDMITIHTPKNKETINMIGAKEIERMKKGVILLNCARGGLYNEDALYEALETKKVRWLGIDVFSKEPGIHNKLLDLPNVYATPHIGANTLESQEEISKQAAQGVMESLRGSSHPHALNLPMQAFDASAKAYLNLAQKLGYFSSQIHKGVCQKIELSLCGEINQFKDALVAFMLVGVLKPVVGDKINYINAPFVAKERGIEIKVSLKESASPYKNMLSLTLNAANGTISVSGTVFEEDILKLTEIDGFHIDIEPKGKMLLFRNTDIPGVIGSVGNAFARHGINIADFRLGRNTQKEALALIIVDEEVSLEVLEELKNIPACLSVHYVVI,failed
8,MYRAAIPNLFTLGNLYSGFLSIGYASLGYYKSAAILVLIGMMLDSLDGRVARLLRVDSQMGKELDSLADVVTFGAAPAVLMYYTSFSNYGIIGLYIAGLFPLFGAYRLARFNVTPSSTSMKYFTGVPITAAGGLVAFLTLFSHTIPKIVLITVFVTFAFLMVSRIRIPSLKDVPIPRYSIIITLFLVGIIITMYQTGFGNFSVFLFIAIPLYILYMLSQFIRQRPSKKANKEK,failed
9,MYRDRVRLPSLLDKVMSAAEAADLIQDGMTVGMSGFTRAGEAKAVPQALAMRAKERPLRISLMTGASLGNDLDKQLTEAGVLARRMPFQVDSTLRKAINAGEVMFIDQHLSETVEQLRNHQLKLPDIAVIEAAAITEQGHIVPTTSVGNSASFAIFAKQVIVEINLAHSTNLEGLHDIYIPTYRPTRTPIPLTRVDDRIGSTAIPIPPEKIVAIVINDQPDSPSTVLPPDGETQAIANHLIDFFKREVDAGRMSNSLGPLQAGIGSIANAVMCGLIESPFENLTMYSEVLQDSTFDLIDAGKLRFASGSSITLSPRRNADVFGNLERYKDKLVLRPQEISNHPEVVRRLGIIGINTALEFDIYGNVNSTHVGGTKMMNGIGGSGDFARNAHLAIFVTKSIAKGGNISSVVPMVSHVDHTEHDVDILVTEQGLADLRGLAPRERARVIIENCVHPSYQAPLLDYFEAACAKGGHTPHLLREALAWHLNLEERGHMLAG,not failed
10,MYRHDVSNEEKDIAVSVIALTAAFAIANRFRSPYGPFFILAVSFLVAVTAFLMHELAHRYVARSYGGIAYFKMWPLGLLLALITSLLGFIFAAPGAVNIGGIYRRDQIGKTSLAGPAMNIFLGILFYAISLFTLIPVAIAIFRYVAEMNFWFGFFNLLPIPPLDGYKVFSWDLYVYIVSVVIALVFVVLFVF,failed
11,MYTENTGKHHRNGLPVWLLPLLVVISFWGVSQNIMVVDASSSVTVLPGNGGTLPLVNQLVIKQNDTALQGITNNAGDRGSLTPKNGAQRVLIHKVKDSDTITSTYGTVGTFHGQEVTAKVTISHIKVHDDSHKAPSGMKQTDGAFQIGPGFSSDTTMSNVAQFNVSYEFYYADTHAAVNIQNAFITLSSLDGPVAGTSTGFEYTAYLGAGKIYTVENSIVKQIANPLGGGQLVMAGQTARDASWPYTSSTAATFGVSGTKLEFIYGTTRVNSGNSWLQPVYNVSTITLGTPAIATPTLSATQSATDKQNRTLTYDLQQKVNVLDQDLMTKYKDWSENITIPANAKYTKGEVVNDAGQALPSTAYQVSYDEKTHQVKWHLTDAGIKSLPFKGETYHFKAQVQFSDDVDDQTKVTATGQTAIDKQTKTSNTVTNTIDNQATITVHHYMTDSTDKVAPDETVKVGYGKAYDVTKQVKTITGYKRNATLDEHTRGTASKTTKEAVMYYDPLPYNIHVNYLLTDGQKLDELDVTGLYGDTYTTEATDFEDLYTVDTDRLPTNAQGTVTEKPTTVNYYYQPTTGQWVDVGNQSSVLVRQDTKHNVRSVSQIYANDSGFTVKYNQDAAQVAIAASDTNGTQDNSLVFDYNSKYTFELSKNETVTFKVDDQGQVTATRVLGAEQTVTTFDKSGQLKTVTTVTNANGTKSQQTNTVDGLKSMVTGEQYDLGLLNGLKVTAQKEINPSQAATTESKTTTDTSQSGSNQSTSTTATDQTETNESTAGSSTNATNASSSVDASSANSQGDTEATSQSGTSASADSKTDSSVASSTSQTTDGKTDGETTNTGDTTTGTTTDSGLGFKSPFTEDQNTSSALGSAQTSSSLNSDTSAAVQALIAEPNSTPVVLGEDASFEEGVPVNDPVFSNDEGVSPNNNPSSAATPLAQATNTRARLTQNGKLLYEGTLKADQGEQNLYVSPDTTVEVDGGDDGDGFYLDTYDGDKGMAYTLGSGYAWAAENNDVTAAPASSATTSSESAASESNTNSSDSSRTASSAVDHSTSSASTSDASQSSHSTSSGESSHPESSSGSSTTSDSADADKQAAARSSQTQSNSVNGSSQAVSSSTVTSQSSVPTKANTKQASSTPTTKANRATVAAATSSTAPRQSRATTASASVPSVTSASAVAASRDKQQSAFKKQHPILNQILPKTNSAVATWLVWLGVGLLLLTVAITMVIKKRGRD,failed
12,MYTITDIAPTDAEFIALIAALDAWQETLYPAESNHLLDLSQLPPQTVIALAIRSPQGEAVGCGAIVLSEEGFGEMKRVYIDPQHRGQQLGEKLLAALEAKARQRDCHTLRLETGIHQHAAIALYTRNGYQTRCAFAPYQPDPLSVFMEKP,failed
13,MYTPVSKSTKSNKNRSSLDKILDAKKPVNLLILGTDTGAEGRSVKNYHGLTDLMMFVTVNPSKKQTRVTTIARDSKVNLPDYPEVSPIKLNSAYSLGGVSETIKTLDKYYSVPIDGYVLVNWASTMKIITKMGGVDVISPLTFDNMGYSFKKGQMYHISGKKALAFVQLRHGDPRQDYGRQERERLVMMAAIKKSVSYKTILNSSFMQSLGDSMQTDLSLNDMIKLAMNYQGVTDNVKSDYAQGKSSSVNNQRFGNMEVEIMSTKERQRISNNIRQTLGIKNVDVYKEDNLEHHHHHH,not failed
14,MYTYDSDKTQDGEENLKCSLEKLAKKIIQNAGDTNGNNSTPNSNDDFAQVFGRERPGRVRCVGLGPTPSSFIQNRTTTTLSKEQEVLSLNNRVRELEDKLVKMSDLEDKVDKMNEVIYISTCRRQQQLHYMTSTMDRRRWLQVEGNDFK,failed
15,MYVFTIGYFTIPANLFSLITSRYSAERKNVGGIVIINLIAGISSSLVFALLVPYYISLTKLDVPIYFYSAISLIILTYLLTVTNSIAQGRTPKIVGISALIFQVLRLVSGIIFMFIFNLSILAVILAYSIGYLAQVLFNLFFIRANLKIDFKVAFSAVRKAVVYIANYIQYILEASIVWITLGIVNSDLVVAYFESAIIVSNIQIGHKQYIQGLWLS,failed
16,MYYNIALAYTHLDIHHLAIHFVNMALEGFRSEYKFRNIINCQILIAVSYTEKGQYEEALKMYESILREATSFADKDVLLAITLSNMGSIYYKKGKYQQAKKYYLDSLQLQKQIDLNYLDTIYEMALVCIKLEELEEARTLIDKGIDAAKQEERFNAKLYLLLMLRYKYFEEAKDYKAFLENEAIPLYKSAGNKIELKKVYVELAEHFSSLSRFEESNRYYRLVIDLMNDNKEE,failed
17,MYYVYVAGYILLAAAMQLFTGNFPVSFLAFPLNIIFAAIWLFLLWILYKEYNNLRITRFLGSSKASVLSISLFIGGCLIIGLFPQLSEPEAEMRKGISASLGCYNFMTSWIFISILLLLLSNLAMITIHACRHRKQARWRFILNHTGLWLALFAGFLGSSDTQTLRIPLYKGEPKHEAFDMNGASYYLDYDMELNSFAVEYYPNGRPSRFSANVRLGNENVLLEVNHPYSYRLGEDVYLTGYDVTKGNESNYCILQVVKQPWKYVMVAGILMMLAGAVLLFINGAKAYDKLG,failed
18,NALHIINMVGTRNATDYGKHICVSFLQELQMLCPDVLVVSGLAYGIDINAHRSALSVELPTVGVLAHGLDRIYPSLHRKTAIDMLRQGGLLTEFLSGTNPDKHNFISRNRIVAGISDATIVVESAAKGGSLITADIAGSYHRDCFAFPGR,failed
